According to paper PMC9482650, “Quantitative fragmentomics allow affinity mapping of interactomes” (Nature Communications, 2022):

Legend:
Assay in all cases: holdup assay
Parameters in all cases: key: below the threshold = too weak to quantify, mostly under pKd 3.1 to 4
GRASP, Q7Z6J2 = molecular target: GRASP, Q7Z6J2
MPDZ_5, O75970 = molecular target: T1, MPDZ_5, O75970
T1 sequence (O75970 695-796, limits assumed, looked up): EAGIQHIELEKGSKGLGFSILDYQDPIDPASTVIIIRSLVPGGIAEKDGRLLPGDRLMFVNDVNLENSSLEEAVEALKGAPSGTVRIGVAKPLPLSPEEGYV

MAGI2_6, Q86UL8 = molecular target: MAGI2_6, Q86UL8
Inadl_1, Q8NI35 = molecular target: Inadl_1, Q8NI35
TJP2_1, Q9UDY2 = molecular target: TJP2_1, Q9UDY2
LIN7A, O14910 = molecular target: T2, LIN7A, O14910
T2 sequence (O14910 103-200, limits assumed, looked up): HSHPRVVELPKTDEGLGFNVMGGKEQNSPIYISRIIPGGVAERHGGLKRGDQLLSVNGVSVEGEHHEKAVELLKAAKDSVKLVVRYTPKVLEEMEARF

IL16_4, Q14005 = molecular target: IL16_4, Q14005
AHNAK1, Q09666 = molecular target: AHNAK1, Q09666
MAGI1_1, Q96QZ7 = molecular target: MAGI1_1, Q96QZ7
CARD11, Q9BXL7 = molecular target: T3, CARD11, Q9BXL7
T3 sequence (Q9BXL7 662-765, limits assumed, looked up): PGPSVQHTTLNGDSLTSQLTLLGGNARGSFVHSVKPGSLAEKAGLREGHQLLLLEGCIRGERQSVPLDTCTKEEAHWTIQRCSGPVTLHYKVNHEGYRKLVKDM

LNX2_3, Q8N448 = molecular target: T4, LNX2_3, Q8N448
T4 sequence (Q8N448 463-564, limits assumed, looked up): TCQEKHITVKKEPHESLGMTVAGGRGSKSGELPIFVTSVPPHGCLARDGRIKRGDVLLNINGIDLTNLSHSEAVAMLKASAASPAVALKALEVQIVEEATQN

NHERF3_4, Q5T2W1 = molecular target: T5, NHERF3_4, Q5T2W1
T5 sequence (Q5T2W1 373-468, limits assumed, looked up): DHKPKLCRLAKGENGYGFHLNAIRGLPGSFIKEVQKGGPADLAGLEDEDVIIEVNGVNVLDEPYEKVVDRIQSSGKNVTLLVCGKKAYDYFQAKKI

SNTB1, Q13884 = molecular target: T6, SNTB1, Q13884
T6 sequence (Q13884 107-205, limits assumed, looked up): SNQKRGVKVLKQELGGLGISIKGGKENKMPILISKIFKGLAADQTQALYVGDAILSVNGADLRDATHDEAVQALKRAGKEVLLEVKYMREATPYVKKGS

ARHGAP21, Q5T5U3 = molecular target: T7, ARHGAP21, Q5T5U3
T7 sequence (Q5T5U3 45-169, limits assumed, looked up): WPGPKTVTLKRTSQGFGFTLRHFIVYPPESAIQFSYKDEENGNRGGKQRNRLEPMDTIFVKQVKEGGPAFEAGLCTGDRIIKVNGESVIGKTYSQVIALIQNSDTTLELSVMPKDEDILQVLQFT

GRID2IP_1, A4D2P6 = molecular target: GRID2IP_1, A4D2P6
TIAM2, Q8IVF5 = molecular target: T8, TIAM2, Q8IVF5
T8 sequence (Q8IVF5 885-986, limits assumed, looked up): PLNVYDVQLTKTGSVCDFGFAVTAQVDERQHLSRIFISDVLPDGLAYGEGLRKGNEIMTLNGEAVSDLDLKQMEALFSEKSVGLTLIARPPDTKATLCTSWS

LIN7B, Q9HAP6 = molecular target: T9, LIN7B, Q9HAP6
T9 sequence (Q9HAP6 88-185, limits assumed, looked up): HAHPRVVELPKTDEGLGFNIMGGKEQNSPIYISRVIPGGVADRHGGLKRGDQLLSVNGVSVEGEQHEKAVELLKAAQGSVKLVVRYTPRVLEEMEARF

Inadl_9, Q8NI35 = molecular target: Inadl_9, Q8NI35
GRIP1_5, Q9Y3R0 = molecular target: T10, GRIP1_5, Q9Y3R0
T10 sequence (Q9Y3R0 568-668, limits assumed, looked up): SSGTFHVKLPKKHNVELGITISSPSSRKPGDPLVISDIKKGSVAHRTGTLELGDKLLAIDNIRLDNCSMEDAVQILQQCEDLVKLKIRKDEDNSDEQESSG

PICK1, Q9NRD5 = molecular target: PICK1, Q9NRD5
PDZRN4_1, Q6ZMN7 = molecular target: PDZRN4_1, Q6ZMN7
SNTG1, Q9NSN8 = molecular target: T11, SNTG1, Q9NSN8
T11 sequence (Q9NSN8 52-150, limits assumed, looked up): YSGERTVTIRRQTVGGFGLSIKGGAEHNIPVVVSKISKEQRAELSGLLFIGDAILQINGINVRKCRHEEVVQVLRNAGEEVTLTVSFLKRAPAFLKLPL

LRRC7, Q96NW7 = molecular target: T12, LRRC7, Q96NW7
T12 sequence (Q96NW7 1440-1537, limits assumed, looked up): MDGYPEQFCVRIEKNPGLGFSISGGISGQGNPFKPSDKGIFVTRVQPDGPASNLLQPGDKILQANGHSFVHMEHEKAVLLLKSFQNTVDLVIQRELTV

HTRA3, P83110 = molecular target: T13, HTRA3, P83110
T13 sequence (P83110 354-453, limits assumed, looked up): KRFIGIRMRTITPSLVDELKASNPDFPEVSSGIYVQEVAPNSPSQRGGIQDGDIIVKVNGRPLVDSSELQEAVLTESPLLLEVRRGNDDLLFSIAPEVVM

[1] = plain residues with an end cap or a label only (N-terminal biotin on a linker: ahx)
[2] = plain residues with an end cap or a label only (N-terminal biotin on a linker: ttds)

Measured: pKd

MAGI1_1, Q96QZ7, sequence (Q96QZ7 1-106): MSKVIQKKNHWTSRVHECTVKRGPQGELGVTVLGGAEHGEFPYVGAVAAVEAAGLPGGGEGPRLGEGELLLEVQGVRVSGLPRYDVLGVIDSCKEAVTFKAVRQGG
TJP2_1, Q9UDY2, sequence (Q9UDY2 24-128): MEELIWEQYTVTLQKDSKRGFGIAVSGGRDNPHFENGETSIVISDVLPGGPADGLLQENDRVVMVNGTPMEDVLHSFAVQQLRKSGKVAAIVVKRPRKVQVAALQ
GRASP, Q7Z6J2, sequence (Q7Z6J2 96-193): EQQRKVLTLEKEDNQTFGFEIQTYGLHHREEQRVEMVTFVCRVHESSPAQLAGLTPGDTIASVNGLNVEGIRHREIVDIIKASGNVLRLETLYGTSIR
MAGI2_6, Q86UL8, sequence (Q86UL8 1141-1229): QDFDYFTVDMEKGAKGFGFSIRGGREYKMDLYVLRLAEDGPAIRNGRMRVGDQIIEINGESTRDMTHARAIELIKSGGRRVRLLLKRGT
GRID2IP_1, A4D2P6, sequence (A4D2P6 1-87): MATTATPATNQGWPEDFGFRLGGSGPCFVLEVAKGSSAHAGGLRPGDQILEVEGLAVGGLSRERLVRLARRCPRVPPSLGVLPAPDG
IL16_4, Q14005, sequence (Q14005 1229-1329): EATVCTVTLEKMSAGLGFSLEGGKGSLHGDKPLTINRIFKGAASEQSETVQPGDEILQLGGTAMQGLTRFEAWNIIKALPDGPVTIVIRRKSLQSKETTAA
AHNAK1, Q09666, sequence (Q09666 4-100): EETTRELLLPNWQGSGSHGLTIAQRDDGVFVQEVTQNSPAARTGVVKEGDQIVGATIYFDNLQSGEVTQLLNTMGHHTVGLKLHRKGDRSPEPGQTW
PDZRN4_1, Q6ZMN7, sequence (Q6ZMN7 213-318): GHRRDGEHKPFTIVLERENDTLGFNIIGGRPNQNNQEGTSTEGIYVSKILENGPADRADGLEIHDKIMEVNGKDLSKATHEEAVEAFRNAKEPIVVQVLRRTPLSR
PICK1, Q9NRD5, sequence (Q9NRD5 17-115): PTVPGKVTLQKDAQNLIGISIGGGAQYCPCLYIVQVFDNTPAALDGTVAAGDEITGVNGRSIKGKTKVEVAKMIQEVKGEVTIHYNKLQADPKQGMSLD
Inadl_9, Q8NI35, sequence (Q8NI35 1530-1615): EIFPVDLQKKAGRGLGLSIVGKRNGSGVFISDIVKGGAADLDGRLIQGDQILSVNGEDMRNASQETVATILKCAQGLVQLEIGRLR
Inadl_1, Q8NI35, sequence (Q8NI35 113-229): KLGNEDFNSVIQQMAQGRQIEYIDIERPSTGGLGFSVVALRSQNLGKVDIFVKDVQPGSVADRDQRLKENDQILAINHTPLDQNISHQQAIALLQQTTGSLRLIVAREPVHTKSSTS

SDSSGQEYSL [KCTD3, Q9Y597]
below the threshold: GRASP, Q7Z6J2; [1] | MPDZ_5, O75970; [1] | MAGI2_6, Q86UL8; [1] | Inadl_1, Q8NI35; [1] | TJP2_1, Q9UDY2; [1] | LIN7A, O14910; [1] | IL16_4, Q14005; [1] | AHNAK1, Q09666; [1] | MAGI1_1, Q96QZ7; [1] | CARD11, Q9BXL7; [1] | LNX2_3, Q8N448; [1] | NHERF3_4, Q5T2W1; [1] | SNTB1, Q13884; [1] | ARHGAP21, Q5T5U3; [1] | GRID2IP_1, A4D2P6; [1] | TIAM2, Q8IVF5; [1] | LIN7B, Q9HAP6; [1] | Inadl_9, Q8NI35; [1] | GRIP1_5, Q9Y3R0; [1] | PICK1, Q9NRD5; [1] | PDZRN4_1, Q6ZMN7; [1] | SNTG1, Q9NSN8; [1] | LRRC7, Q96NW7; [1] | HTRA3, P83110; [1]

DKDPHSETAL [TMIGD1, Q6UXZ0]
3.79: MAGI2_6, Q86UL8; [2]
4.1: SNTG1, Q9NSN8; [2]
3.52: NHERF3_4, Q5T2W1; [2]
below the threshold: GRASP, Q7Z6J2; [2] | MPDZ_5, O75970; [2] | Inadl_1, Q8NI35; [2] | TJP2_1, Q9UDY2; [2] | LIN7A, O14910; [2] | IL16_4, Q14005; [2] | AHNAK1, Q09666; [2] | MAGI1_1, Q96QZ7; [2] | CARD11, Q9BXL7; [2] | LNX2_3, Q8N448; [2] | ARHGAP21, Q5T5U3; [2] | GRID2IP_1, A4D2P6; [2] | TIAM2, Q8IVF5; [2] | LIN7B, Q9HAP6; [2] | Inadl_9, Q8NI35; [2] | GRIP1_5, Q9Y3R0; [2] | PICK1, Q9NRD5; [2] | LRRC7, Q96NW7; [2] | HTRA3, P83110; [2]
4.64: PDZRN4_1, Q6ZMN7; [2]
4.53: SNTB1, Q13884; [2]

SSLQSLETSV [ATP2B4, P23634]
3.58: MPDZ_5, O75970; [2]
3.76: PICK1, Q9NRD5; [2]
3.62: TJP2_1, Q9UDY2; [2]
5.59: SNTB1, Q13884; [2]
5.08: SNTG1, Q9NSN8; [2]
4.04: LIN7A, O14910; [2]
4.55: MAGI2_6, Q86UL8; [2]
below the threshold: Inadl_1, Q8NI35; [2] | IL16_4, Q14005; [2] | AHNAK1, Q09666; [2] | CARD11, Q9BXL7; [2] | LNX2_3, Q8N448; [2] | ARHGAP21, Q5T5U3; [2] | GRID2IP_1, A4D2P6; [2] | TIAM2, Q8IVF5; [2] | Inadl_9, Q8NI35; [2] | GRIP1_5, Q9Y3R0; [2] | LRRC7, Q96NW7; [2]
3.6: GRASP, Q7Z6J2; [2]
4.3: LIN7B, Q9HAP6; [2]
3.71: MAGI1_1, Q96QZ7; [2]
3.63: NHERF3_4, Q5T2W1; [2]
3.51: HTRA3, P83110; [2]
4.79: PDZRN4_1, Q6ZMN7; [2]

RHTTSTETAV [HPV30-E6, P36809]
5.1: SNTB1, Q13884; [2]
4.53: PDZRN4_1, Q6ZMN7; [2]
4.94: SNTG1, Q9NSN8; [2]
3.8: LIN7A, O14910; [2]
3.96: GRASP, Q7Z6J2; [2]
3.72: AHNAK1, Q09666; [2]
4.19: MAGI2_6, Q86UL8; [2]
below the threshold: MPDZ_5, O75970; [2] | Inadl_1, Q8NI35; [2] | TJP2_1, Q9UDY2; [2] | IL16_4, Q14005; [2] | MAGI1_1, Q96QZ7; [2] | CARD11, Q9BXL7; [2] | LNX2_3, Q8N448; [2] | NHERF3_4, Q5T2W1; [2] | ARHGAP21, Q5T5U3; [2] | GRID2IP_1, A4D2P6; [2] | TIAM2, Q8IVF5; [2] | Inadl_9, Q8NI35; [2] | GRIP1_5, Q9Y3R0; [2] | PICK1, Q9NRD5; [2] | LRRC7, Q96NW7; [2] | HTRA3, P83110; [2]
3.71: LIN7B, Q9HAP6; [2]

ESLLLGPSNF [SHROOM4, Q9ULL8]
below the threshold: MPDZ_5, O75970; [1] | MAGI2_6, Q86UL8; [1] | Inadl_1, Q8NI35; [1] | TJP2_1, Q9UDY2; [1] | LIN7A, O14910; [1] | IL16_4, Q14005; [1] | AHNAK1, Q09666; [1] | MAGI1_1, Q96QZ7; [1] | CARD11, Q9BXL7; [1] | LNX2_3, Q8N448; [1] | NHERF3_4, Q5T2W1; [1] | SNTB1, Q13884; [1] | ARHGAP21, Q5T5U3; [1] | GRID2IP_1, A4D2P6; [1] | LIN7B, Q9HAP6; [1] | Inadl_9, Q8NI35; [1] | GRIP1_5, Q9Y3R0; [1] | PICK1, Q9NRD5; [1] | PDZRN4_1, Q6ZMN7; [1] | SNTG1, Q9NSN8; [1] | LRRC7, Q96NW7; [1] | HTRA3, P83110; [1]
3.49: TIAM2, Q8IVF5; [1]
4.36: GRASP, Q7Z6J2; [1]

KKYVDAETSL [SLC4A7, Q9Y6M7]
below the threshold: MPDZ_5, O75970; [2] | TJP2_1, Q9UDY2; [2] | LIN7A, O14910; [2] | AHNAK1, Q09666; [2] | MAGI1_1, Q96QZ7; [2] | CARD11, Q9BXL7; [2] | LNX2_3, Q8N448; [2] | NHERF3_4, Q5T2W1; [2] | ARHGAP21, Q5T5U3; [2] | GRID2IP_1, A4D2P6; [2] | TIAM2, Q8IVF5; [2] | Inadl_9, Q8NI35; [2] | PICK1, Q9NRD5; [2] | LRRC7, Q96NW7; [2] | HTRA3, P83110; [2]
4.8: PDZRN4_1, Q6ZMN7; [2]
3.68: MAGI2_6, Q86UL8; [2]
3.82: SNTG1, Q9NSN8; [2]
3.55: Inadl_1, Q8NI35; [2]
4.46: SNTB1, Q13884; [2]
3.73: GRASP, Q7Z6J2; [2]
3.53: IL16_4, Q14005; [2] | LIN7B, Q9HAP6; [2] | GRIP1_5, Q9Y3R0; [2]
